Reference: the RNAGym collection of RNA variant scans (doi:10.7554/elife.90254)

B1: LINE1-full (parent)
chain: UACGUAGGUGGUUUUCCCCUGAUAGUGCUAAGGGGGCCUGGAAGUUUGGACUGGGCAGAGCUCAACACAGCGUGGCAAAGUGGCUGUGGCUAGACUGCCUCUCUGGAUUCCUCGUCACUCAGCAGGGCAUCUCUGAGAGAAAUGCC

Variants of: B1
Assay: self-cleavage, relative activity (ratio to wild type); higher = more cleavage; in vitro, sequencing; the parent is a self-cleaving ribozyme

Variant | self-cleavage
UACGUAGGUGGUUUUCCCCUGAUAGUGCUAAGGGGGCCUGGAAGUUAGGACUGGGCAGAGCUCAACACAGCGUGGCAAAGUGGCUGUGGCUAGACUGCCUCUCUGGAUUCCUCGUCACACAGCAGGGCAUCUCUGAGAGAAAUGCC [U47A U119A] | 1.34
UACGUAGGUGGUUUUCCCCUGAUAGUGCUAAGGGGGCCUGGAAGUUAGGACUGGGCAGAGCUCAACACAGCGUGGCAAAGUGGCUGUGGCUAGACUGCCUCUCUGGAUUCCUCGUCACUCAGCAGGGCAUCCCUGAGAGAAAUGCC [U47A U132C] | 1.41
UACGUAGGUGGUUUUCCCCUGAUAGUGCUAAGGGGGCCUGGAAGUUAGGACUGGGCAGAGCUCAACACAGCGUGGCAAAGUGGCUGUGGCUAGACUGCCCCUCUGGAUUCCUCGUCACUCAGCAGGGCAUCUCUGAGAGAAAUGCC [U47A U100C] | 1.81
UACGUAGGUGGUUUUCCCCUGAUAGUGCUAAGGGGGCCUGGAAGUUAGGACUGGGCAGAGCUCAACACAGCGUGGCAAAGUGGCUGUGGCUAGACUGCCUCUCUGGAUUCCUCGUCAAUCAGCAGGGCAUCUCUGAGAGAAAUGCC [U47A C118A] | 0.95
UACGUAGGUGGUUUUCCCCUGAUAGUGCUAAGGGGGCCUGGAAGUUAGGACUGGGCAGAGCUCAACACAGCGUGGCAAAGUGGCUGUGGCUAGACUGCCUCUCAGGAUUCCUCGUCACUCAGCAGGGCAUCUCUGAGAGAAAUGCC [U47A U104A] | 0.59
UACGUAGGUGGUUUUCCCCUGAUAGUGCUAAGGGGGCCUGGAAGUUAGGACUGGGCAGAGCUCAACACAGCGUGGCAAAGUGGCUGUGGCUAGACUGCCUCUCUGGAUUCCUCGUCACUCAGCACGGCAUCUCUGAGAGAAAUGCC [U47A G125C] | 1.49
UACGUAGGUGGUUUUCCCCUGAUAGUGCUAAGGGGGCCUGGAAGUUAGGACUGGGCAGAGCUCAACACAGCGUGGCAAAGUGGCUGUGGCUAGACUGCCUCUCUGGAUUCCUCGUCACUCAGCAAGGCAUCUCUGAGAGAAAUGCC [U47A G125A] | 1.11
UACGUAGGUGGUUUUCCCCUGAUAGUGCUAAGGGGGCCUGGAAGUUAGGACUGGGCAGAGCUCAACACAGCGUGGCAAAGUGGCUGCGGCUAGACUGCCUCUCUGGAUUCCUCGUCACUCAGCAGGGCAUCUCUGAGAGAAAUGCC [U47A U87C] | 0.19
UACGUAGGUGGUUUUCCCCUGAUAGUGCUAAGGGGGCCUGGAAGUUAGGACUAGGCAGAGCUCAACACAGCGUGGCAAAGUGGCUGUGGCUAGACUGCCUCUCUGGAUUCCUCGUCACUCAGCAGGGCAUCUCUGAGAGAAAUGCC [U47A G53A] | 1.23
UACGUAGGUGGUUUUCCCCUGAUAGUGCUAAGGGGGCCUGGAAGUUAGGACUGGGCAGAGCUCAACACAGCGUGGCAAAGUGGCUGUGGCUAGACUGCCUCUCUGGAUUCCUCGUCACUCAGCAGGGCAUCUCUGAGAGAGAUGCC [U47A A141G] | 1.37
UACGUAGGUGGUUUUCCCCUGAUAGUGCUAAGGGGGCCUGGAAGUUAGGACUGGGCAGAGCUCAACACAGCGUGGCAAAGUGGCGGUGGCUAGACUGCCUCUCUGGAUUCCUCGUCACUCAGCAGGGCAUCUCUGAGAGAAAUGCC [U47A U85G] | 0.17
UACGUAGGUGGUUUUCCCCUGAUAGUGCUAAGGGGGCCUGGAAGUUAGGACUGGGCAGAGCUCAACACAGCGUGGCAAAGUGGCAGUGGCUAGACUGCCUCUCUGGAUUCCUCGUCACUCAGCAGGGCAUCUCUGAGAGAAAUGCC [U47A U85A] | 0.04
UACGUAGGUGGUUUUCCCCUGAUAGUGCUAAGGGGGCCUGGAAGUUAGGACUGGGCAGAGCUCAACACAGCGUGGCAAAGUGGCUGUGGCUAGACUGCCUCUCUGGAUACCUCGUCACUCAGCAGGGCAUCUCUGAGAGAAAUGCC [U47A U109A] | 1.74
UACGUAGGUGGUUUUCCCCUGAUAGUGCUAAGGGGGCCUGGAAGUUAGGACUGGGCAGAGCUCAACACAGCGUGGCAAAGUAGCUGUGGCUAGACUGCCUCUCUGGAUUCCUCGUCACUCAGCAGGGCAUCUCUGAGAGAAAUGCC [U47A G82A] | 2.27
UACGUAGGUGGUUUUCCCCUGAUAGUGCUAAGGGGGCCUGGAAGUUAGGACUGGGCAGAGCUCAACACAGCGUGGCAAAGUGGCUGUGGCUAGACUGCCUCUCUGGAUUCCUCGUCACUCAGCAGGGCAUCUCUGGGAGAAAUGCC [U47A A136G] | 1.52
UACGUAGGUGGUUUUCCCCUGAUAGUGCUAAGGGGGCCUGGAAGUUAGGACUGGGCAGAGCUCAACACAGCGUGGCAAAGUGGCUGUGGCUAGACAGCCUCUCUGGAUUCCUCGUCACUCAGCAGGGCAUCUCUGAGAGAAAUGCC [U47A U96A] | 0.08
UACGUAGGUGGUUUUCCCCUGAUAGUGCUAAGGGGGCCUGGAAGUUAGGACUGGGCAGAGCUCAACACAGCGUGGCAAAGUGGCUGUGGCUAGACUGCCUCUCUGGAUUCCUCGUCACUCAGCAGGGCAUCUCUGAGAGGAAUGCC [U47A A140G] | 0.99
UACGUAGGUGGUUUUCCCCUGAUAGUGCUAAGGGGGCCUGGAAGUUAGGACUGGGCAGAGCUCAACACAGCGUGGCAAAGUGGCUGUGGCUAGACUGCCUCUCUGGAUUCCUCGUCACUCAGCAGGGCACCUCUGAGAGAAAUGCC [U47A U130C] | 1.51
UACGUAGGUGGUUUUCCCCUGAUAGUGCUAAGGGGGCCUGGAAGUUAGGACUGGGCAGAGCUCAACACAGCGUGGCAAAGUGGAUGUGGCUAGACUGCCUCUCUGGAUUCCUCGUCACUCAGCAGGGCAUCUCUGAGAGAAAUGCC [U47A C84A] | 0.14
UACGUAGGUGGUUUUCCCCUGAUAGUGCUAAGGGGGCCUGGAAGUUAGGACUGGGCAGAGCUCAACACAGCGUGGCAAAGUGGUUGUGGCUAGACUGCCUCUCUGGAUUCCUCGUCACUCAGCAGGGCAUCUCUGAGAGAAAUGCC [U47A C84U] | 0.09

Variant | self-cleavage
UACGUAGGUGGUUUUCCCCUGAUAGUGCUAAGGGGGCCUGGAAGUUAGGACUGGGCAGAGCUCAACACAGCGUGGCAAAGAGGCUGUGGCUAGACUGCCUCUCUGGAUUCCUCGUCACUCAGCAGGGCAUCUCUGAGAGAAAUGCC [U47A U81A] | 1.11
UACGUAGGUGGUUUUCCCCUGAUAGUGCUAAGGGGGCCUGGAAGUUAGGACUGGGCAGAGAUCAACACAGCGUGGCAAAGUGGCUGUGGCUAGACUGCCUCUCUGGAUUCCUCGUCACUCAGCAGGGCAUCUCUGAGAGAAAUGCC [U47A C61A] | 0.03
UACGUAGGUGGUUUUCCCCUGAUAGUGCUAAGGGGGCCUGGAAGUUAGGACUGGGCAGAGCUCAACACAGCGUGGCAAAGUGGCUGUGGCUAGACUGCCUCUCUGGAUUCCUCGUCACUCAGCAGGGCAUCUCUGAGAGAAAGGCC [U47A U143G] | 1.2
UACGUAGGUGGUUUUCCCCUGAUAGUGCUAAGGGGGCCUGGAAGUUAGGACUGGGCAGAGCUCAACACAGCGUGGCAAAGUGGCUGUGGCUAGACUGCCUCUCUGGAUUCCUCGUCACUCAGCAGGGCAUCUCUGAGAGAAAAGCC [U47A U143A] | 1.27
UACGUAGGUGGUUUUCCCCUGAUAGUGCUAAGGGGGCCUGGAAGUUAGGACAGGGCAGAGCUCAACACAGCGUGGCAAAGUGGCUGUGGCUAGACUGCCUCUCUGGAUUCCUCGUCACUCAGCAGGGCAUCUCUGAGAGAAAUGCC [U47A U52A] | 1.84
UACGUAGGUGGUUUUCCCCUGAUAGUGCUAAGGGGGCCUGGAAGUUAGGACUGGGCAGAGCUCAACACAGCGAGGCAAAGUGGCUGUGGCUAGACUGCCUCUCUGGAUUCCUCGUCACUCAGCAGGGCAUCUCUGAGAGAAAUGCC [U47A U73A] | 1.11
UACGUAGGUGGUUUUCCCCUGAUAGUGCUAAGGGGGCCUGGAAGUUAGGACUGGGCAGAGCUCAACACAGCGCGGCAAAGUGGCUGUGGCUAGACUGCCUCUCUGGAUUCCUCGUCACUCAGCAGGGCAUCUCUGAGAGAAAUGCC [U47A U73C] | 1.45
UACGUAGGUGGUUUUCCCCUGAUAGUGCUAAGGGGGCCUGGAAGUUAGGACUGGGCAGAGCUCAACACAGCGUGGCAAAGUGGCUGUGGCUAGACUGCCUCUCUGGAUUCCCCGUCACUCAGCAGGGCAUCUCUGAGAGAAAUGCC [U47A U112C] | 1.15
UACGUAGGUGGUUUUCCCCUGAUAGUGCUAAGGGGGCCUGGAAGUUAGGACUGGGCAGAGCUCAACACAGCGUGGCAAAGUGGCUGUGGCUAGACUGCCUCUCUGGAUUCCACGUCACUCAGCAGGGCAUCUCUGAGAGAAAUGCC [U47A U112A] | 0.7
UACGUAGGUGGUUUUCCCCUGAUAGUGCUAAGGGGGCCUGGAAGUUAGGACUGGGCAGAGCUCAACACAGUGUGGCAAAGUGGCUGUGGCUAGACUGCCUCUCUGGAUUCCUCGUCACUCAGCAGGGCAUCUCUGAGAGAAAUGCC [U47A C71U] | 0.9
UACGUAGGUGGUUUUCCCCUGAUAGUGCUAAGGGGGCCUGGAAGUUAGGACUGGGUAGAGCUCAACACAGCGUGGCAAAGUGGCUGUGGCUAGACUGCCUCUCUGGAUUCCUCGUCACUCAGCAGGGCAUCUCUGAGAGAAAUGCC [U47A C56U] | 0.14
UACGUAGGUGGUUUUCCCCUGAUAGUGCUAAGGGGGCCUGGAAGUUAGGACUGGGCAGAGCUCAACACAGCGUGGCAAAGUGGCUGUAGCUAGACUGCCUCUCUGGAUUCCUCGUCACUCAGCAGGGCAUCUCUGAGAGAAAUGCC [U47A G88A] | 0.01
UACGUAGGUGGUUUUCCCCUGAUAGUGCUAAGGGGGCCUGGAAGUUAGGACUGGGCAGAGCUCAACACAGCGUGGCAAAGUGGCUGUGGCUAGACUGCCUCUCUGGAUUCCUCGUCACUCAGCCGGGCAUCUCUGAGAGAAAUGCC [U47A A124C] | 1.18
UACGUAGGUGGUUUUCCCCUGAUAGUGCUAAGGGGGCCUGGAAGUUAGGACUGGGCAGAGCUCAACACAGCGUGGCAAAGUGGCUGUGGCUAGACUGCCUCUCUGAAUUCCUCGUCACUCAGCAGGGCAUCUCUGAGAGAAAUGCC [U47A G106A] | 1.3
UACGUAGGUGGUUUUCCCCUGAUAGUGCUAAGGGGGCCUGGAAGUUAGGACUGGGCAGAGCUCAACACAGCGUGGCAAAGUGGCUGUGGCUAGACUGCCUCUCUGGAUUCCUCGUCACUCAGCAGGGCAUCUCUGAGUGAAAUGCC [U47A A138U] | 1.59
UACGUAGGUGGUUUUCCCCUGAUAGUGCUAAGGGGGCCUGGAAGUUAGGACUGGGCAGAGCUCAACACAGCGUGGCAAAGUGGCUGUGGCUAGACUGCCUCUCUGGAUUCCUCGUCACUCAGCAGGGUAUCUCUGAGAGAAAUGCC [U47A C128U] | 1.39
UACGUAGGUGGUUUUCCCCUGAUAGUGCUAAGGGGGCCUGGAAGUUAGGACUGGGCAGAGCUCAACACAGCGUGGCAAAGUGGCUGUGGCUAGACUGCCUCUCUGGAUUCCUCGUCACUAAGCAGGGCAUCUCUGAGAGAAAUGCC [U47A C120A] | 1.36
UACGUAGGUGGUUUUCCCCUGAUAGUGCUAAGGGGGCCUGGAAGUUAGGACUGGGCAGAGCUCAACACAGCGUGGCAAAGUGGCUGUGGCUAGACUGCUUCUCUGGAUUCCUCGUCACUCAGCAGGGCAUCUCUGAGAGAAAUGCC [U47A C99U] | 0.3
UACGUAGGUGGUUUUCCCCUGAUAGUGCUAAGGGGGCCUGGAAGUUAGGACUGGGCAGAGCUCAACACAGCGUGGCAAAGUGGCUGUGGCUAGACUGCAUCUCUGGAUUCCUCGUCACUCAGCAGGGCAUCUCUGAGAGAAAUGCC [U47A C99A] | 0.48
